Read-outs that look alike come from different tables or passages of the source.
T1: human ST2L on HEK-BLUE IL-33/IL-1beta cells (human, UniProt Q01638 19-556)
T1 sequence: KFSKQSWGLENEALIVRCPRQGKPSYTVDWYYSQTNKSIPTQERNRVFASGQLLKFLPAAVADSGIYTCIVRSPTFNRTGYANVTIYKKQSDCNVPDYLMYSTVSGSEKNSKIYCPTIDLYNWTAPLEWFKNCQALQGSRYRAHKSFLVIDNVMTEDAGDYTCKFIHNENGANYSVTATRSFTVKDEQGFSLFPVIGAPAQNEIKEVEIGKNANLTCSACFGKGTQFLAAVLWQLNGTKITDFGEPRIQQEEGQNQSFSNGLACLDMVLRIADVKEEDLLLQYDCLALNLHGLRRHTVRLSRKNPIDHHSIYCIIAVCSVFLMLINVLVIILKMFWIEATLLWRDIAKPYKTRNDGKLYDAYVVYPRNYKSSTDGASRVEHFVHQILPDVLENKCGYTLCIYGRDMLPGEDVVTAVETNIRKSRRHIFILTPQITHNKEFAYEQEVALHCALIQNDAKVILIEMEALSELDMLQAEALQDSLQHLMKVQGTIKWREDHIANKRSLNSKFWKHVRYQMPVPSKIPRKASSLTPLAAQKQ

T2: cynomolgus monkey N-terminal 6-His-tagged and C-terminal Avi-tagged IL-33 (S112-T270) (cynomolgus monkey)
T2 chain: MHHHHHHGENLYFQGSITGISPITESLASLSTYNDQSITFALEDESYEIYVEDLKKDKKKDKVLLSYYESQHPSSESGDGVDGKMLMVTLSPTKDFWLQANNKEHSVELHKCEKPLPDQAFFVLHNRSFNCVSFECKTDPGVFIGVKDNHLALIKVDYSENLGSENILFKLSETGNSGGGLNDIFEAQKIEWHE

T3: cyno IL-33 N-His (cynomolgus monkey)
T3 chain: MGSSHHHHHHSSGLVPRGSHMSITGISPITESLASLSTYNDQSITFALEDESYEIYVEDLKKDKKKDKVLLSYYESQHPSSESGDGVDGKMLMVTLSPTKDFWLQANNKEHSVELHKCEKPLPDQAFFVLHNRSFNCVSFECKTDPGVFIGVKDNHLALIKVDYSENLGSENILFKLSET

T4: human IL-33 (R&D Systems, #3625-IL-010/CF) (human, UniProt O95760 112-270)
T4 construct: also called hIL-33; huIL-33
T4 sequence (looked up): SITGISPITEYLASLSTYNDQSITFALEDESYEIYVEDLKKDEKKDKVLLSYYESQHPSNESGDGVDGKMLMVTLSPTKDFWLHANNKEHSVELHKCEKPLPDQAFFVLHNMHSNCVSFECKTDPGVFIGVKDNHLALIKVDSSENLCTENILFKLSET

T5: biotinylated human IL-33 (human, UniProt O95760 112-270, biotin-labeled with EZ-LINK NHS-PEG4-Biotin)
T5 construct: also called biotin-huIL-33
T5 sequence (looked up): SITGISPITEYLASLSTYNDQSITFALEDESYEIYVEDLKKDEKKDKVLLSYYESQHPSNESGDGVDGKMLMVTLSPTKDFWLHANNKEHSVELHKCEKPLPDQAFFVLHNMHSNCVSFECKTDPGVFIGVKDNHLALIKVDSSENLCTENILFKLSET

T6: biotinylated cyno IL-33 (cynomolgus monkey, UniProt A0A2K5W3I1 112-269, biotin-labeled with EZ-LINK NHS-PEG4-Biotin)
T6 construct: also called biotin-cyIL-33
T6 sequence: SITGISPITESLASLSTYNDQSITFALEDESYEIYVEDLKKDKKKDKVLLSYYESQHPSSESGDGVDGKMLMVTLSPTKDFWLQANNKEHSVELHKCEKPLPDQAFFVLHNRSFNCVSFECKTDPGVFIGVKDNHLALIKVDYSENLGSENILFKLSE


What was measured:
[1] = target: T1, human ST2L on HEK-BLUE IL-33/IL-1beta …; assay: cell-based or functional assay
[2] = target: T2, cynomolgus monkey N-terminal …; assay: cell-based or functional assay
[3] = target: T3, cyno IL-33 N-His; assay: SPR Biacore T200, 25 C
In short: (§1)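 Antibodies captured via anti-Fc on CM5 chip; IL-33 injected at 3.7–100 nM (three-fold series), 4 min association, 10 min dissociation, 30 μl/min, ADA pH 7.4 buffer with 0.15 M NaCl, EDTA, Tween-20, at 25 °C or 37 °C. KD = koff/kon from 1:1 Langmuir fit; t1/2 = ln(2)/(60*koff).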

[4] = target: T3, cyno IL-33 N-His; assay: SPR Biacore T200, 37 C
In short: as §1

[5] = target: T2, cynomolgus monkey N-terminal …; assay: cell-based or functional assay
[6] = target: T4, human IL-33 (R&D Systems, …); assay: SPR Biacore T200, 25 C
In short: as §1

[7] = target: T4, human IL-33 (R&D Systems, …); assay: SPR Biacore T200, 37 C
In short: as §1

[8] = target: T4, human IL-33 (R&D Systems, …); assay: cell-based or functional assay
[9] = target: T4, human IL-33 (R&D Systems, …); assay: cell-based or functional assay; remark: listed apart in the source
[10] = target: T4, human IL-33 (R&D Systems, …); assay: cell-based or functional assay; remark: listed apart in the source
[11] = target: T4, human IL-33 (R&D Systems, …); assay: cell-based or functional assay; remark: listed apart in the source
[12] = target: T4, human IL-33 (R&D Systems, …); assay: cell-based or functional assay; remark: listed apart in the source
[13] = target: T4, human IL-33 (R&D Systems, …); assay: cell-based or functional assay; remark: listed apart in the source
[14] = target: T5, biotinylated human IL-33; assay: competitive ELISA, biotin-huIL-33 to coated hST2-Fc
Description: The ability of the anti-IL-33 antibody 10C12.38.H6.87Y.58I IgG4 and each anti-IL-33 antibody listed in Table 5 (RG1-RG20) to block either human IL-33 or cyno IL-33 binding to human ST2 receptor was tested in a competitive binding ELISA. Briefly, 1 μg/ml of recombinant human ST2-Fc chimera protein prepared in coating buffer (50 mM sodium carbonate, pH 9.6) was coated on a 384-well MAXISORP® plate (Nalgene Nunc International; Rochester, N.Y.) and incubated overnight at 4° C. On the next day, non-specific binding was blocked with PBS containing 0.5% (w/v) solution of bovine serum albumin (BSA). Fixed concentrations of biotinylated human or cyno IL-33 prepared in assay buffer (25 mM PBS, pH 7.2, 0.1% BSA, 0.05% TWEEN®-20) were mixed with an equal volume of serially-diluted anti-IL-33 antibodies or assay buffer alone and incubated for 1 h at room temperature. The final assay concentrations of biotinylated human IL-33 or cyno IL-33 were 20 pM and 45 pM, respectively, and the final assay concentration of each antibody ranged from 0-300 nM. The pre-mixed solutions were added to the ST2-Fc coated plate and incubated for 1 h at room temperature. The binding of biotinylated IL-33 to coated ST2-Fc was detected by the sequential addition of Streptavidin Poly-HRP80 (Fitzgerald; Buckinghamshire, UK) and 3,3′,5,5′-tetramethyl benzidine (TMB) Microwell Peroxidase Substrate System (KPL; Gaithersburg, Md.). The absorbance (450 nm) was recorded using a […] ASCENT® plate reader (Thermo Scientific; Rockford, Ill.). The binding activity (%) of biotin-IL-33 to ST2 in the presence of anti-IL-33 was plotted as a function of antibody concentration. The data generated were fitted to a four-parameter equation to determine IC₅₀ values for each antibody (FIGS. 25A and 25B) using Prism software (Graphpad Software; La Jolla, Calif.). The maximum blocking (%) of each antibody was calculated as the ratio of the reduction in signal measured in the presence of antibody relative to the difference between the signal with IL-33 alone and background measurements.

[15] = target: T6, biotinylated cyno IL-33; assay: competitive ELISA, biotin-cyIL-33 to coated hST2-Fc
In short: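 Recombinant human ST2-Fc coated at 1 μg/ml; biotin-IL-33 (final 20 pM human, 45 pM cyno) premixed 1 h RT with serially diluted antibody (0–300 nM final), then bound to ST2-Fc 1 h RT. Streptavidin-polyHRP/TMB, A450; IC₅₀ from four-parameter fit, max blocking relative to IL-33-alone signal minus background.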

Row | Binder | EC50 (SEAP reporter OD 620, HEK-BLUE IL-33/IL-1beta cells) [1] [pM] | Kd [3] [nM] | koff [3] [s⁻¹] | kon [3] [M⁻¹ s⁻¹] | t1/2 [3] [min] | Kd [4] [nM] | koff [4] [s⁻¹] | kon [4] [M⁻¹ s⁻¹] | t1/2 [4] [min] | IC50; SEAP reporter (OD 620), HEK-BLUE IL-33/IL-1beta cells, 5 pM cyno IL-33 (5pM cIL-33-Nhis) [5] [M] | IC50; SEAP reporter (OD 620), HEK-BLUE IL-33/IL-1beta cells, 10 pM hIL-33 [8] [M] | IC50, IL-33-induced phospho-p38 in primary human basophils, 500 pM hIL-33 [9] [M] | IC50 (read off the curve) [10] [pM] | IC50 (read off the curve) [11] [pM] | Ph-p38 MFI at 0.4 nM Ab (500 pM human IL-33, primary basophils) [12] [MFI] | Ph-p38 MFI at 2 nM Ab (500 pM human IL-33, primary basophils) [13] [MFI] | IC50 [14] [nM] | Maximum Blocking [14] [%] | also measured
1 | Human IL-33 N-His Biotinylated (ligand, biotinylated, sites not given) ligand: MGSSHHHHHHSSGLVPRGSHMSITGISPITEYLASLSTYNDQSITFALEDESYEIYVEDLKKDEKKDKVLLSYYESQHPSNESGDGVDGKMLMVTLSPTKDFWLHANNKEHSVELHKCEKPLPDQAFFVLHNMHSNCVSFECKTDPGVFIGVKDNHLALIKVDSSENLCTENILFKLSET | 4 | – | – | – | – | – | – | – | – | – | – | – | – | – | – | – | – | – | –
2 | H4H9675P (antibody, V domains shown) VH: EVQLVESGGNLEQPGGSLRLSCTASGFTFSRSAMNWVRRAPGKGLEWVSGISGSGGRTYYADSVKGRFTISRDNSKNTLYLQMNSLSAEDTAAYYCAKDSYTTSWYGGMDVWGHGTTVTVSS VL: DIQMTQSPSSVSASVGDRVTITCRASQGIFSWLAWYQQKPGKAPKLLIYAASSLQSGVPSRFSGSGSGTDFTLTISSLQPEDFAIYYCQQANSVPITFGQGTRLEIK | – | 2.73 | 0.000988 | 362000 | 12 | 6.72 | 0.00505 | 751000 | 2 | 5.7e-08 | – | – | – | – | – | – | – | – | HEK-BLUE SEAP reporter, fold weaker than 10C12.38.H6.87Y.58I IgG4 [2]: 14 fold
3 | H4H9629P (antibody, IgG4, V domains shown, also called RG4) VH: EVQLVESGGGLVQPGGSLRLSCAASGFTFRSFAMSWVRQAPGKGLELVSDLRTSGGSTYYADSVKGRLTISRDNSKNTLYLQMNSLRAEDTAVYYCAKSHYSTSWFGGFDYWGQGTLVTVSS VL: DIQMTQSPSSVSASVGDRVTITCRASQGFSSWLAWYQQKPGKAPKLLIYAASSLQSGVPSRFSGSGSGTDFTLTITNLQPEDFATYYCQQANSFPLTFGGGTKVEIK | – | 54 | 0.0204 | 379000 | 1 | 547 | 0.000502 | 916 | 23 | – | 3.3e-11 | 3.6e-13 | 0.3 to 0.4 | 0.3 to 0.4 | 67 | 38 | 0.092 | 82 | Kd [6]: 0.559 nM; koff [6]: 0.000632 s⁻¹; kon [6]: 1.13e+06 M⁻¹ s⁻¹; t1/2 [6]: 18 min; Kd [7]: 0.261 nM; koff [7]: 0.000738 s⁻¹; kon [7]: 2.82e+06 M⁻¹ s⁻¹; t1/2 [7]: 16 min
4 | Human IL-33 N-His C-Avi (ligand) ligand: MHHHHHHGENLYFQGSITGISPITEYLASLSTYNDQSITFALEDESYEIYVEDLKKDEKKDKVLLSYYESQHPSNESGDGVDGKMLMVTLSPTKDFWLHANNKEHSVELHKCEKPLPDQAFFVLHNMHSNCVSFECKTDPGVFIGVKDNHLALIKVDSSENLCTENILFKLSETGNSGGGLNDIFEAQKIEWHE | 9.8 | – | – | – | – | – | – | – | – | – | – | – | – | – | – | – | – | – | –
5 | H1M9568N (antibody, IgG1, V domains shown, also called RG3) VH: QVLLVQSGAEVKKPGATVKVSCKASGSTFTGYYMHWVRQAPGQGLEWMGWINPNNGGTNYAQKFQGRVTMTRDTSISTAYMELSRLRSDDTAVYYCARELRYNWKSWGQGTLVTVSS VL: EIVLTQSPGTLSLSPGERVTLSCRASQSVGRPYLAWYQQIPGQAPRLLIYGASSRATDIPDRFSGNGSGTDFTLTISRLEPEDFAVYYCQQYDNSPYTFGQGTRLEIK | – | – | – | – | – | – | – | – | – | 2.9e-08 | 1.1e-10 | 4e-13 | ~0.4 | ~0.4 | 88 | 38 | 0.19 | 85 | IC50 [15]: 77 nM; Maximum Blocking [15]: 45%

Reference: patent publication US20190092852A1 (Genentech, published 2019)
